Source: patent US20020110800A1, “Use of SHP-1 and SHP-2 to detect compounds involved in neuronal survival” (McGill University, priority 1997, published 2002)

Columns and labels:
SHP-2 [1] = assay: NGF-stimulated association of SHP-2 with tyrosine-phosphorylated proteins in SCG neurons; format: cell-based, rat; settings: NGF-treated SCG cultures
Excerpt: FIG. 4 is a Western blot showing that NGF stimulates an increased association of tyrosine-phosphorylated proteins with SHP-2 in SCG neurons. Lysates prepared from neurotrophin-treated SCGs were immunoprecipitated with anti-SHP-2 antibody and immunoblotted with anti-pTyr. Lanes 1 and 2: NGF-stimulated association of tyrosine-phosphorylated proteins with SHP-2. Lanes 3 and 4: NGF-stimulated increase in tyrosine phosphorylation of SCG proteins.
To determine the mechanism whereby the neutrotrophins stimulate the survival and growth of normal and injured neurons, we have asked whether the phosphoprotein phosphatases SHP-1 and SHP-2 play a role in the differentiation and survival of primary neurons, focusing our studies on cultured rat sympathetic cervical ganglion (SCG) and cortical neurons in order to determine the exact nature of this regulation.
Immunoprecipitations and immunoblotting were performed as previously described (Kaplan et al., Science, 252:554-558, 1991). […]

SHP-2 [2] = assay: NGF-stimulated association of SHP-2 with tyrosine-phosphorylated proteins in PC12 cells; format: cell-based; settings: proteins of 50 to 125 kDa
Description: FIG. 3 is a Western blot showing that NGF stimulates the association of SHP-2 with tyrosine-phosphorylated proteins in PC12 cells. Lysates prepared from PC12 cells treated with NGF for the indicated times were immunoprecipitated with anti-SHP-2 and probed with anti-pTyr antibodies.
(§1) Immunoprecipitations and immunoblotting were performed as previously described (Kaplan et al., Science, 252:554-558, 1991). Briefly, after two washes with ice-cold Tris-buffered saline, cells were lysed in 1 ml of 1% Nonidet P-40 (NP-40 lysis buffer (20 mM Tris [pH8.0], 137 mM NaCl, 0.5 mM EDTA, 10% glycerol, 1 mM phenylmethylsulphonyl fluoride, 0.15 U/ml aprotinin, 20 μM leupeptin, 1 mM sodium vanadate) at 4° C. for 20 min. Insoluble material was removed by centrifugation at 4° C. for 10 min at 10,000× g. Immunoprecipitations were performed for 4-6 hr at 4° C. Precipitates were collected with protein A-Sepharose, then washed three times with NP-40 lysis buffer and once with water. The immunoprecipitates were boiled in sample buffer (2% SDS, 100 mM dithiothreitol, 10% glycerol, 0.25% bromophenol blue) for 5 min and electrophoretically fractionated by SDS-PAGE. Protein blots were probed overnight at 4° C. with antibody. […]

SHP-1 = assay: NGF-stimulated tyrosine phosphorylation of SHP-1 (immunoprecipitation with anti-SHP-1, anti-pTyr blot); format: cell-based; settings: PC12 cells; increased at 10 minutes, still elevated at 30 minutes of neurotrophin treatment
Description: FIG. 2 is a Western blot showing that NGF stimulates tyrosine phosphorylation of SHP-1 in PC12 cells. Lysates prepared from cells treated with NGF were immunoprecipitated with anti-SHP-1 and probed with an anti-phosphotyrosine (pTyr) antibody (top panel).
as §1

TrkA [3] = target: T1, TrkA (Homo sapiens, UniProt P04629); assay: In vitro association of SHP with baculovirus-expressed TrkA; format: binding; settings: autophosphorylated TrkA, insect cells
T1 construct: expressed in transfected cells; host or cells: Sf9 insect cells infected with recombinant baculoviruses
Description: (§2) FIG. 7 is a Western blot showing that SHP-1 associates with baculovirus-expressed TrkA, TrkB and TrkC. TrkA, B and C were activated and autophosphorylated in vitro, incubated with PC12 cell lysates, fractionated by electrophoresis, and probed with anti-SHP-1 (bottom panel), and anti-pan Trk antibodies (upper panel).
Wild-type and mutant TrkA receptors expressed in Sf9 cells were autophosphorylated, incubated with PC12 lysates and immunoblotted with anti-SHP-2.
The in vitro association assay using baculovirus-expressed proteins was performed as described (Kaplan et al., supra). Briefly, Sf9 cells (2×10^6) were infected, harvested, and lysed in NP-40 lysis buffer. Trk proteins were immunoprecipitated with anti-Trk (203) antibody, and the immunoprecipitates were washed once with lysis buffer containing 1% deoxycholate and 0.1% SDS (RIPA), and three times with 50 mM Tris (pH 7.4). Trks then were activated (i.e. autophosphorylated) by incubation with 50 mM Tris (pH 7.4), 5 mM Mn Cl2, 1 mM ATP and 200 μM orthovanadate. Trk proteins then were washed twice with NP40 lysis buffer and were resuspended in 1 ml of PC12 cell lysate. The immunoprecipitated, activated Trk complexes were incubated with the cell lysate for 3 hr at 4° C., and then washed three times with NP-40 lysis buffer and once with 10 mM Tris (pH 7.4) before immunoblot analysis. […]

Trk = target: T2, Trk (Homo sapiens, UniProt P04629); assay: In vitro dephosphorylation of autophosphorylated 32P-labeled Trk by partially purified SHP; format: biochemical; settings: 20 minutes at 30° C.
T2 construct: made in house; host or cells: Sf9 insect cells (recombinant baculovirus)
Description: FIG. 10 is an autoradiogram showing that SHP-1 and SHP-2 dephosphorylate Trk in vitro. Trk, SHP-1 and SHP-2 were expressed in Sf9 insect cells and isolated by immunoprecipitation with anti-Trk, anti-SHP-1 or anti-SHP-2 antibody. Immunoprecipitated Trk was autophosphorylated with [y-^32P]ATP and then was incubated with partially purified SHP-1 or SHP-2. Trk phosphorylation levels then were analyzed by SDS/PAGE and autoradiography.
We hypothesized that the suppressive effects of SHP upon NGF-mediated survival might be due to dephosphorylation of the autophosphorylated Trk receptor. Given that SHP-1 can bind to activated Trk and that SHP-2 is activated by Trk (see Example II), we sought to determine whether the SHPs could dephosphorylate TrkA in vitro and in vivo. Trk, SHP-1, and SHP-2 were expressed in Sf9 cells and isolated by immunoprecipitation with anti-Trk, anti-SHP-1, or anti-SHP-2 antibodies. Immunoprecipitated Trk was autophosphorylated by incubating with 10 mM MnCl2, 20 mM Tris pH 7.4 and 2.0 μCi/ml [γ-^32P]-ATP(3000 Ci/mmol) for 30 minutes at room temperature. Activated, radiolabeled Trk then was incubated with partially purified SHP-1 or SHP-2 for 20 minutes at 30° C. In vitro, both SHP-1 and SHP-2 are able to dephosphorylate Trk to a similar extent (FIG. 10) i.e., approximately 5-fold dephosphorylation. […]

TrkA [4] = target: T1, TrkA; assay: Trk dephosphorylation on coexpression with SHP in Sf9 insect cells; format: cell-based; settings: wild-type TrkA coexpressed in insect cells; for dephosphorylation of Trk at the 674/675 sites: phospho-specific anti-Trk antibodies
Excerpt: (§3) FIG. 11 is a Western blot showing that Y490 and Y785 of TrkA are not required for SHP-1 and SHP-2-mediated dephosphorylation of TrkA in vivo. Lysates of Sf9 insect cells coexpressing SHP-1 or SHP-2 wild-type and mutant TrkAs, as indicated, were immunoprecipitated with anti-Trk and probed with anti-pTyr antibody (upper panel) to determine TrkA phosphorylation levels.
(§4) FIG. 12 is a Western blot showing that Y674/Y675 of TrkA are targets of SHP-1 and SHP-2-mediated dephosphorylation. Lysates of Sf9 insect cells co-expressing SHP-1 or SHP-2 and wild-type TrkA using antibodies that specifically recognize these phosphorylated residues. Blots were probed with anti-pan Trk (C,D), anti-SHP-1 (E,F), or anti-SHP2 (G,H) antibodies.
(§5) Sf9 insect cells (2×10^6) were infected with recombinant baculoviruses at a multiplicity of infection of 1 to 10 and lysed at 48 hr postinfection. Sf9 cells were assayed for the expression of the recombinant proteins by immunoblot analysis, as described above. Recombinant baculoviruses were prepared as previously described (Stephens et al., Neuron, 12:691-705, (1994).
(§6) We hypothesized that the suppressive effects of SHP upon NGF-mediated survival might be due to dephosphorylation of the autophosphorylated Trk receptor. Given that SHP-1 can bind to activated Trk and that SHP-2 is activated by Trk (see Example II), we sought to determine whether the SHPs could dephosphorylate TrkA in vitro and in vivo. Trk, SHP-1, and SHP-2 were expressed in Sf9 cells and isolated by immunoprecipitation with anti-Trk, anti-SHP-1, or anti-SHP-2 antibodies. Immunoprecipitated Trk was autophosphorylated by incubating with 10 mM MnCl2, 20 mM Tris pH 7.4 and 2.0 μCi/ml [γ-^32P]-ATP(3000 Ci/mmol) for 30 minutes at room temperature. Activated, radiolabeled Trk then was incubated with partially purified SHP-1 or SHP-2 for 20 minutes at 30° C. In vitro, both SHP-1 and SHP-2 are able to dephosphorylate Trk to a similar extent (FIG. 10) i.e., approximately 5-fold dephosphorylation. Moreover, coexpression of Trk with SHP-1 or SHP-2 in insect cells results in Trk dephosphorylation. In vivo, both SHP-1 and SHP-2 reduce Trk tyrosine phosphorylation, even when the receptors lack tyrosine 490 (Y490F) and/or tyrosine 785 (Y785F) (FIGS. 11 and 12).
(§7) In order to map the sites of dephosphorylation two approaches were taken. First, we asked whether Trks mutated at tyrosines 490 and 785 could be dephosphorylated by SHP-1 or SHP-2 when coexpressed in insect cells (FIG. 11). SHP-1 extensively dephosphorylates (about 8-fold) all of the Trks, both wild-type and mutated, whereas SHP-2 causes a more modest dephosphorylation (about 2-fold). […] To determine whether the two other major tyrosine phosphorylation sites in Trk, Y674 and 675, are substrates of the SHPs, wild-type TrkA and the SHPs were coexpressed in insect cells, and Trk phosphorylation at Y674, Y675 and Y490 was assessed using phospho-specific anti-Trk antibodies directed at tyrosines 674/675 and 490. SHP-1 completely dephosphorylates Trk (about 10-fold) at the 674/675 sites, while SHP-2 partially dephosphorylates Trk (about 2-fold) at these sites. Tyrosine phosphorylation of the Y490 site also is decreased by SHP-1. […] Since SHP-2 expression stimulates sympathetic neuron death (FIG. 6), we conclude that SHP functions by associating with neurotrophin-activated Trk, dephosphorylating the receptor at sites crucial for maintaining Trk activity, and thereby suppressing neuronal survival.

TrkA [5] = assay: as above; format: cell-based; settings: coexpressed in insect cells, anti-pTyr blot
Excerpt: as §3, §4, §5, §6, §7

TrkC = target: T3, TrkC (Homo sapiens, UniProt Q16288); assay: In vitro association of SHP with baculovirus-expressed TrkC; format: binding; settings: autophosphorylated TrkC, insect cells
T3 construct: made in house; host or cells: Sf9 insect cells (recombinant baculovirus)
Description: as §2
(§8) The in vitro association assay using baculovirus-expressed proteins was performed as described (Kaplan et al., supra). Briefly, Sf9 cells (2×10^6) were infected, harvested, and lysed in NP-40 lysis buffer. Trk proteins were immunoprecipitated with anti-Trk (203) antibody, and the immunoprecipitates were washed once with lysis buffer containing 1% deoxycholate and 0.1% SDS (RIPA), and three times with 50 mM Tris (pH 7.4). Trks then were activated (i.e. autophosphorylated) by incubation with 50 mM Tris (pH 7.4), 5 mM Mn Cl2, 1 mM ATP and 200 μM orthovanadate. Trk proteins then were washed twice with NP40 lysis buffer and were resuspended in 1 ml of PC12 cell lysate. The immunoprecipitated, activated Trk complexes were incubated with the cell lysate for 3 hr at 4° C., and then washed three times with NP-40 lysis buffer and once with 10 mM Tris (pH 7.4) before immunoblot analysis.
(§9) To investigate the mechanism whereby SHP inhibits NGF-induced signaling responses, we first asked whether the SHPs bound to Trk. […]

TrkB = target: T4, TrkB (Homo sapiens, UniProt Q16620); assay: In vitro association of SHP with baculovirus-expressed TrkB; format: binding; settings: autophosphorylated TrkB, insect cells
T4 construct: made in house; host or cells: Sf9 insect cells (recombinant baculovirus)
Description: as §2, §8, §9

T1 sequence (P04629 33-790 isoform P04629-2): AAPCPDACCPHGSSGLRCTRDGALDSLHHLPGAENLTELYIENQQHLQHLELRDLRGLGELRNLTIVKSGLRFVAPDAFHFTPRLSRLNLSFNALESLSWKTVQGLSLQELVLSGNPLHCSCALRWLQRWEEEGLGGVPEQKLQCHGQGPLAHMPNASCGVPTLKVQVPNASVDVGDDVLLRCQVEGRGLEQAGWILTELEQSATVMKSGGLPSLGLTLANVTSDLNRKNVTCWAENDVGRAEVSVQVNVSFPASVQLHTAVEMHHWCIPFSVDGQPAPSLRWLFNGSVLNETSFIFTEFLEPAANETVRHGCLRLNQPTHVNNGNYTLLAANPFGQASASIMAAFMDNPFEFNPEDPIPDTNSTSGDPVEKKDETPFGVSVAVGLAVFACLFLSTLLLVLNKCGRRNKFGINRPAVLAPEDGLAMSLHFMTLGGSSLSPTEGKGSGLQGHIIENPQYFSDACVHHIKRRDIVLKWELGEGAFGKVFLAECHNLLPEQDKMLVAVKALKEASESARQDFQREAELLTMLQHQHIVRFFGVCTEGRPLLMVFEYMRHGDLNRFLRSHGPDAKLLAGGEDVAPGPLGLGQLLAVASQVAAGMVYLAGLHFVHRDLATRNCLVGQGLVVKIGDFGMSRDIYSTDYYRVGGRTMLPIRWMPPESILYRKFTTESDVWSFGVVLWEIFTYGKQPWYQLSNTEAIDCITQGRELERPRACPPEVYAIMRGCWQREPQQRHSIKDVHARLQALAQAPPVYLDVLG
T2 sequence (P04629 33-790 isoform P04629-2 limits assumed): as the sequence (P04629 33-790 isoform P04629-2) above
T3 sequence (Q16288 32-839, species assumed): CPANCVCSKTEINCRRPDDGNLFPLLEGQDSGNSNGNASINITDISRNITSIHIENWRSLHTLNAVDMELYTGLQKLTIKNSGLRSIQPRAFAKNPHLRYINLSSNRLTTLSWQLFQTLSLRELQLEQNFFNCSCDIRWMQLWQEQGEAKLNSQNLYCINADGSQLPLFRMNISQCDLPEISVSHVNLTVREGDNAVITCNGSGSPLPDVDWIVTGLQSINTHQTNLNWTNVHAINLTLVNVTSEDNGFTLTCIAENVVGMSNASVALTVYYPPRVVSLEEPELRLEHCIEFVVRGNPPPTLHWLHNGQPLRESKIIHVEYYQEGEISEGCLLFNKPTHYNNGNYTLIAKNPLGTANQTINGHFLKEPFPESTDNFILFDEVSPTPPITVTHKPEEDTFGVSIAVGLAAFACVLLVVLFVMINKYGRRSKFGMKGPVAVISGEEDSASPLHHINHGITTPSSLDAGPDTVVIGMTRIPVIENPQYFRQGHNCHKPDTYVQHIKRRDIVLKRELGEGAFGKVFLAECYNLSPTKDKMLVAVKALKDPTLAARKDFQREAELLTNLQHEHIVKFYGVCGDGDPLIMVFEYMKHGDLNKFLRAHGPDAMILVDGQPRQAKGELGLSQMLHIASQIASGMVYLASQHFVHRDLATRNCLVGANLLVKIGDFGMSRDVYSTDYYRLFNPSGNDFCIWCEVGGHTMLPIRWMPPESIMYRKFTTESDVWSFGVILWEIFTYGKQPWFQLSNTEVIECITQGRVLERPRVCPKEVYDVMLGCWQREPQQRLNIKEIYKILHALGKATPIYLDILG
T4 sequence (Q16620 32-822, species assumed): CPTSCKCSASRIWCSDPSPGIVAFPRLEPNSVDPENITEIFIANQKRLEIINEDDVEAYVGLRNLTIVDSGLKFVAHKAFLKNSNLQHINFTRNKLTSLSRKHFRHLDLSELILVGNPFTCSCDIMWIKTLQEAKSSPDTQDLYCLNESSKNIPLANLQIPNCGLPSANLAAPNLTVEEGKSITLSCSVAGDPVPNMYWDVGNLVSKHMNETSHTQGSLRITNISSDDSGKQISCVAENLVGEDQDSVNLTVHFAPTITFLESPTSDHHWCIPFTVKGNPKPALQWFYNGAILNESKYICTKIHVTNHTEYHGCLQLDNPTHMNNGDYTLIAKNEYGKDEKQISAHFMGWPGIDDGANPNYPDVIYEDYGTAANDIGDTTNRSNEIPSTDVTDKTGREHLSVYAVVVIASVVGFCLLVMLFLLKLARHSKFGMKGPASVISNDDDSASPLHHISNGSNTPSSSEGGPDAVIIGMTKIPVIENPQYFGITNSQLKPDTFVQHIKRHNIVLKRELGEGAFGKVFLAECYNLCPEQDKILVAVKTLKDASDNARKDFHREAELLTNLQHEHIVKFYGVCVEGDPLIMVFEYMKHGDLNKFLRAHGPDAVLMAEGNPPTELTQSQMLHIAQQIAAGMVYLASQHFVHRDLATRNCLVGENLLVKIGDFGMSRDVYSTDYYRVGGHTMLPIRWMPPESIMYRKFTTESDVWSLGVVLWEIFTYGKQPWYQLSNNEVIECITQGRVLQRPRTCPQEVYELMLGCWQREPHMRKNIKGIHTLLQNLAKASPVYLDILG

| dephosphorylation of Trk in vitro (Trk) | dephosphorylation of Trk at the 674/675 sites (TrkA [4]) | tyrosine phosphorylation of the Y490 site (TrkA [4]; phospho-specific anti-Trk antibody) | Substance | association of SHP-2 with tyrosine phosphorylated proteins (SHP-2 [1]) | association of SHP-2 with tyrosine phosphorylated proteins (SHP-2 [2]) | tyrosine phosphorylation of SHP-1 (SHP-1) | binding to activated Trk (TrkA [3]) | dephosphorylation of Trks, wild-type and mutated at tyrosines 490 and 785 (TrkA [5]) | binding to activated Trk (TrkC) | binding to activated Trk (TrkB) |
| --- | --- | --- | --- | --- | --- | --- | --- | --- | --- | --- |
|  |  |  | NGF: prototypical neurotrophin, Nerve Growth Factor, obtained from Peprotech | SHP-2 could be seen to associate with at least five tyrosine phosphorylated proteins | stimulates the association of SHP-2 with a number of tyrosine phosphorylated proteins | stimulates an increase in the tyrosine phosphorylation of SHP-1 |  |  |  |  |
| approximately 5 fold | about 2 fold |  | SHP-2: nontransmembrane protein-tyrosine phosphatase containing SH2 domains, GenBank Accession Number L03535 |  |  |  | unable to bind to Trk | about 2 fold |  |  |
| approximately 5 fold | about 10 fold | decreased | SHP-1: nontransmembrane protein-tyrosine phosphatase containing SH2 domains, GenBank Accession Number M77273 |  |  |  | binds to activated (i.e. autophosphorylated) TrkA, TrkB and TrkC | about 8 fold | binds to activated (i.e. autophosphorylated) TrkA, TrkB and TrkC | binds to activated (i.e. autophosphorylated) TrkA, TrkB and TrkC |
